This note sets out measurements from patent US20160274129.

For series [1], the target named is T1, α-fructosyl-valyl-histidyl-leucyl-threonyl-proryl-glutamyl-glutamyl-lysyl-seryl-alanyl-valyl-threonyl-alanyl-leucyl-tryptophyl-glycine.
T1 chain: VHLTPEEKSAVTALWG

Series [2] deals with T2, α-fructosyl-valyl-histidyl-leucine.
T2 chain: VHL

Series [3] addresses T3, α-fructosyl-valyl-histidyl-leucyl-threonine.
T3 chain: VHLT

Series [4] has as its target T4, α-fructosyl-valyl-histidyl-leucyl-threonyl-proryl-glutamic acid.
T4 chain: VHLTPE

Series [5] deals with T5, α-fructosyl-valyl-histidyl-leucyl-threonyl-proryl-glutamyl-glutamyl-lysine.
T5 chain: VHLTPEEK

In series [6] the target is T6, α-fructosyl-valyl-histidyl-leucyl-threonyl-proline.
T6 chain: VHLTP

In series [7] the target is T7, α-fructosyl-valyl-histidine.
T7 chain: VH

Positions count from the first letter of the chain named.

B1: CFP-T7-H35 (protein)
chain: MTSNRADTRVIVVGGGGTIGSSTALHLVRSGYAPANITVLDTFEIPSAQSAGHDLNKIMGIDHRNKVDLQMSLEARQMWKEDELFQPFFHNTGRMDCEHTPKGIEKLKKLYQKLHDAGAGLEKTHAWLDNEDEILSKMPLLQRDQIQGWKAIWSQDGGWLAAAKAINAIGQFLKERGVKFGFGGAGSFKQPLFDDEGTTCIGVETADGTKYYADKVVLAAGAWSPTLVDLEDQCCSKAWVYAHIQLTPEEAAEYKGVPVVYNGEFGFFFEPDEFGVIKVCDEFPGFSRFKEHQPYGAPSPKRISVPRSHAKHPTDTYPDASEVSIKKAIATFLPRFQDKELFNRALCWCTDTADSALLMCEHPKWKNFILATGDSGHSFKILPNVGKYVVELIEGRLPEEMAYQWRWRPGGDALKSRRAAPPKDLADMPGWKHDPKL
On to B1, for which the Specific activity (U/mg), 1 mM αF16P, purified enzyme in series [1] worked out at 0.247 U/mg. The Specific activity (U/mg), 1 mM αF3P, purified enzyme in series [2] was determined as 1.24 U/mg. Moreover, in series [3], the Specific activity (U/mg), 1 mM αF4P, purified enzyme came to 0.352 U/mg. In addition, in series [4], the Specific activity (U/mg), 1 mM αF6P, purified enzyme stood at 4.27 U/mg; the “fold of specific activity on αF6P against FAOAo2 (Amadoriase 25/Comparative Example 2)” value was 2 times (Amadoriase 26/Comparative Example 3) to 1,940 times (Amadoriase 25/Comparative Example 2); the αF6P oxidation activity ratio (crude enzyme; CFP-T7-H28 = 100) (relative (CFP-T7-H28 = 100)) was found to be 206; the αF6P/αFV came out at 0.323. This protein yielded a αF6P/αFVH in series [4] of 2.25. The protein also displayed a Specific activity (U/mg), 1 mM αF8P, purified enzyme in series [5] of 1.59 U/mg. For the same protein, the Specific activity (U/mg), 1 mM αF5P, purified enzyme in series [6] turned out to be 2.15 U/mg. Moreover, the Specific activity (U/mg), 1 mM αFVH, purified enzyme in series [7] is 1.9 U/mg.

B2: CFP-T7 (protein)
chain: B1 chain with D62R, H63L, K102E, K106D, L110Q, K113A, S355A
As for B2, the Specific activity (U/mg), 1 mM αF16P, purified enzyme in series [1] was determined as 0 U/mg. This protein also registered a Specific activity (U/mg), 1 mM αF3P, purified enzyme in series [2] of 0 U/mg. In series [3], this protein showed a Specific activity (U/mg), 1 mM αF4P, purified enzyme of 0 U/mg. Moreover, in series [4], the Specific activity (U/mg), 1 mM αF6P, purified enzyme is 0 U/mg; the αF6P oxidation activity (crude enzyme; αFVH oxidation activity = 100) (relative (αFVH = 100)) is 0; the αF6P/αFV came to 0; the αF6P/αFVH came out at 0. The protein also registered a Specific activity (U/mg), 1 mM αF8P, purified enzyme in series [5] of 0 U/mg. In addition, the Specific activity (U/mg), 1 mM αF5P, purified enzyme in series [6] is 0 U/mg. The protein also came in with a Specific activity (U/mg), 1 mM αFVH, purified enzyme in series [7] of 16.5 U/mg.
